T1: hFcgRIIaH (human, UniProt P12318 34-217)
T1 construct: extracellular domain; also called human FcγRIIa type H (H131)
T1 sequence (looked up): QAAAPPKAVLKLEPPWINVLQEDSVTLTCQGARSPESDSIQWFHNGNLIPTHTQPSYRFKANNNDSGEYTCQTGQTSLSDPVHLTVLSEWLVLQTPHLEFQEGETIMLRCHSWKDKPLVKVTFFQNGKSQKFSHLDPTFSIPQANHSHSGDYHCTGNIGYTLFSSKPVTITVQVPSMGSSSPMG

T2: hFcgRIIaR (human, UniProt P12318 34-217)
T2 construct: extracellular domain; also called human FcγRIIa type R (R131)
T2 sequence (looked up): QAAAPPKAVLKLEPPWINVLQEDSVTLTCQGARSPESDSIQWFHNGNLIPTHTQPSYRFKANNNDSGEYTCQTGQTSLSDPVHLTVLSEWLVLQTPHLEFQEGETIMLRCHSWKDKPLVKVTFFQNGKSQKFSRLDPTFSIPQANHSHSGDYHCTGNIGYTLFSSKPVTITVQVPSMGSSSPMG

T3: hFcgRIIb (human, UniProt P31994 43-217)
T3 construct: extracellular domain; also called human FcγRIIb
T3 sequence (looked up): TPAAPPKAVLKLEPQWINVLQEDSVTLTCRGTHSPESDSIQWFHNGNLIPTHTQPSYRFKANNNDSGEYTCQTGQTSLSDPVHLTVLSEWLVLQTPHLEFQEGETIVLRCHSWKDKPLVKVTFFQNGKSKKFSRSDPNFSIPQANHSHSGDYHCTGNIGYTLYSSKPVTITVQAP


What was measured:
[1] = biological target: T4, hFcgRIa (human, UniProt P12314 16-292); experiment: SPR 25C
T4 construct: extracellular domain; also called human FcγRIa; FcγRI
T4 sequence (P12314 16-292): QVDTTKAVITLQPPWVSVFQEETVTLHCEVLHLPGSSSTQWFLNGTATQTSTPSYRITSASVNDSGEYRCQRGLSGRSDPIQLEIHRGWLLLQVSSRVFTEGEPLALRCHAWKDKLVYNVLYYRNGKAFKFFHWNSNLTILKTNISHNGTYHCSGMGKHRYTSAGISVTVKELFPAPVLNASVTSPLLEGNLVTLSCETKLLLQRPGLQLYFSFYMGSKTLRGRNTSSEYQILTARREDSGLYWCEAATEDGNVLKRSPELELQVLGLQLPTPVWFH

[2] = biological target: T1, hFcgRIIaH; experiment: SPR 25C
[3] = biological target: T2, hFcgRIIaR; experiment: SPR 25C
[4] = biological target: T3, hFcgRIIb; experiment: SPR 25C
[5] = biological target: T5, hFcgRIIIaF (human, UniProt P08637 17-208); experiment: SPR 25C
T5 construct: extracellular domain; also called human FcγRIIIa allotype F158
T5 sequence (P08637 17-208): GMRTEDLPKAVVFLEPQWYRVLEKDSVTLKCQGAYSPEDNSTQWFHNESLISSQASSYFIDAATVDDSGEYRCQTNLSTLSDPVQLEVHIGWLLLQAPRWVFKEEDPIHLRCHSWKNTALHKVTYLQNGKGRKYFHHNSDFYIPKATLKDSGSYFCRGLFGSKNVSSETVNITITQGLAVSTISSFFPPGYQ

[6] = biological target: T6, hFcgRIIIaV (human, UniProt P08637 17-208); experiment: SPR 25C
T6 construct: extracellular domain; also called human FcγRIIIa allotype V158
T6 sequence (P08637 17-208 F176V): as the sequence (P08637 17-208) above, with F160V counted along it

[7] = biological target: human FcRn (human, UniProt P55899 24-290; P61769 21-119, limits assumed); experiment: SPR 25C pH 6.0, steady state;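 also: antibody captured on chip via anti-human Fab-lambda ligand, human FcRn injected as analyte in 50 mM phosphate buffer with 150 mM NaCl and P20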
human FcRn, sequence (P55899 24-290 limits assumed, chain 1 of 2): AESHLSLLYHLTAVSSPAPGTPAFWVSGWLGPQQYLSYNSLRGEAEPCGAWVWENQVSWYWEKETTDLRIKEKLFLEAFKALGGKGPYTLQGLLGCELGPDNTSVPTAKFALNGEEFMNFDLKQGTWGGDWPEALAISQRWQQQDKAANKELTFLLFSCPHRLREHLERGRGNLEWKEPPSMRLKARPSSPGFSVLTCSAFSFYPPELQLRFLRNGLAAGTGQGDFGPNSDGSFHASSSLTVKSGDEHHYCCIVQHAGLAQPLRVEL
human FcRn, sequence (P61769 21-119 limits assumed, chain 2 of 2): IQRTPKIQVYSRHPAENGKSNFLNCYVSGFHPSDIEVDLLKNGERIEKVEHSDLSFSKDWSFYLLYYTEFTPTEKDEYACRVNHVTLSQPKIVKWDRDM
Method: Biacore T200 (GE Healthcare) was used to assess the binding activity to human FcRn. Measurement was performed at 25° C. using 50 mM phosphate, 150 mM NaCl, 0.05 w/v %-P20, pH 6.0 as buffer. […] About 400 RU of antibody was captured using a sensor chip immobilized with CaptureSelect™ Human Fab-lambda Kinetics Biotin Conjugate (Thermo Fisher Scientific) as a molecule for ligand capturing, followed by the binding of human FcRn diluted in measuring buffer. The activity of the respective antibodies to bind FcRn was assessed by calculating KD (mol/L) by the steady-state model using Biacore T200 Evaluation Software 2.0.

[8] = biological target: T4, hFcgRIa; experiment: SPR 25C; relative to A375-G1T3/B167-Lamlib;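 also: SPR with antibody captured on an anti-human Fab-lambda chip, human FcγR analyte at 8 nM for FcγRIa or 1000 nM for the others, pH 7.4, FcγR RU per captured antibody unit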
[9] = biological target: T1, hFcgRIIaH; experiment: SPR 25C; relative to A375-G1T3/B167-Lamlib;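 also: SPR with antibody captured on an anti-human Fab-lambda chip, human FcγR analyte at 8 nM for FcγRIa or 1000 nM for the others, pH 7.4, FcγR RU per captured antibody unit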
[10] = biological target: T2, hFcgRIIaR; experiment: SPR 25C; relative to A375-G1T3/B167-Lamlib;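 also: SPR with antibody captured on an anti-human Fab-lambda chip, human FcγR analyte at 8 nM for FcγRIa or 1000 nM for the others, pH 7.4, FcγR RU per captured antibody unit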
[11] = biological target: T3, hFcgRIIb; experiment: SPR 25C; relative to A375-G1T3/B167-Lamlib;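 also: SPR with antibody captured on an anti-human Fab-lambda chip, human FcγR analyte at 8 nM for FcγRIa or 1000 nM for the others, pH 7.4, FcγR RU per captured antibody unit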
[12] = biological target: T5, hFcgRIIIaF; experiment: SPR 25C; relative to A375-G1T3/B167-Lamlib
[13] = biological target: T6, hFcgRIIIaV; experiment: SPR 25C; relative to A375-G1T3/B167-Lamlib
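For binding per 1RU of antibody in this document: biacore SPR with antibody captured on an anti-human Fab lambda chip, human FcγR injected at 1000 nM (FcγRIa at 8 nM) in pH 7.4 phosphate buffer.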

Row | Binder | binding per 1RU of antibody [1] [RU] | binding per 1RU of antibody [2] [RU] | binding per 1RU of antibody [3] [RU] | binding per 1RU of antibody [4] [RU] | binding per 1RU of antibody [5] [RU] | binding per 1RU of antibody [6] [RU] | Kd [7] [nM] | relative binding amount [8] | relative binding amount [9] | relative binding amount [10] | relative binding amount [11] | relative binding amount [12] | relative binding amount [13]
1 | A375-SCF039/B167-Lamlib (antibody, human IgG1, lambda) heavy: EVQLVESGGGLVKPGGSLRLSCAASGFTFSTFTMNWVRQAPGKGLEWVSSISSKSTYIEYADSFKVRFTISRDNAKNSLYLQMNSLRAEDTAVYYCARYGAKNFLNWVFDYWGQGTLVTVSSASTKGPSVFPLAPSSKSTSGGTAALGCLVKDYFPEPVTVSWNSGALTSGVHTFPAVLQSSGLYSLSSVVTVPSSSLGTQTYICNVNHKPSNTKVDKKVEPKSCDKTHTCPPCPAPELWNGPSVFLFPPKPKDTLMISRTPEVTCVVVDVSDEDPEVKFNWYVDGVEVHNAKTKPREELYNSTYRVVSVLTVLHQDWLNGKEYKCKVSNTALPKPIEKTISKAKGQRREPQVYTLPPSREEMTKNQVSLTCLVKGFYPSDIAVEWESNGQPENNYKTTPPVLDSDGSFFLYSKLTVDKSRWQQGNVFSCSVMHEALHNHYTQKSLSLSP light: QSALTQPPSASGSPGQTVTISCTGTRYDVGYYEYVSWYQQHPGKAPKLMIYETSKRLSGVPDRFSGSKSGNTASLTVSGLQAEDEADYYCSSYRYEHQVSFGGGTKLTVLGQPKAAPSVTLFPPSSEELQANKATLVCLISDFYPGAVTVAWKADSSPVKAGVETTTPSKQSNNKYAASSYLSLTPEQWKSHRSYSCQVTHEGSTVEKTVAPTECS | 0.0018 | 0.0535 | 0.0542 | 0.0531 | 0.0008 | 0.0013 | 1090 | 0.02 | 0.94 | 1.17 | 4.85 | 0.04 | 0.02
2 | A375-SCF041a/B167-Lamlib (antibody, human IgG1, lambda) heavy: EVQLVESGGGLVKPGGSLRLSCAASGFTFSTFTMNWVRQAPGKGLEWVSSISSKSTYIEYADSFKVRFTISRDNAKNSLYLQMNSLRAEDTAVYYCARYGAKNFLNWVFDYWGQGTLVTVSSASTKGPSVFPLAPSSKSTSGGTAALGCLVKDYFPEPVTVSWNSGALTSGVHTFPAVLQSSGLYSLSSVVTVPSSSLGTQTYICNVNHKPSNTKVDKRVEPKSCDKTHTCPPCPAPELLNGPSVFLFPPKPKDTLMISRTPEVTCVVVDVSDEDPEVKFNWYVDGVEVHNAKTKPREEQYNSTYRVVSVLTVLHQDWLNGKEYKCKVSNKALPKPIEKTISKAKGQRREPQVYTLPPSREEMTKNQVSLTCLVKGFYPSDIAVEWESNGQPENNYKTTPPVLDSDGSFFLYSKLTVDKSRWQQGNVFSCSVMHEALHNHYTQKSLSLSP light: QSALTQPPSASGSPGQTVTISCTGTRYDVGYYEYVSWYQQHPGKAPKLMIYETSKRLSGVPDRFSGSKSGNTASLTVSGLQAEDEADYYCSSYRYEHQVSFGGGTKLTVLGQPKAAPSVTLFPPSSEELQANKATLVCLISDFYPGAVTVAWKADSSPVKAGVETTTPSKQSNNKYAASSYLSLTPEQWKSHRSYSCQVTHEGSTVEKTVAPTECS | 0.0446 | 0.0571 | 0.0376 | 0.0433 | 0.0009 | 0.0022 | 1100 | 0.55 | 1.01 | 0.81 | 3.95 | 0.04 | 0.03
3 | A375-SCF039a/B167-Lamlib (antibody, human IgG1, lambda) heavy: EVQLVESGGGLVKPGGSLRLSCAASGFTFSTFTMNWVRQAPGKGLEWVSSISSKSTYIEYADSFKVRFTISRDNAKNSLYLQMNSLRAEDTAVYYCARYGAKNFLNWVFDYWGQGTLVTVSSASTKGPSVFPLAPSSKSTSGGTAALGCLVKDYFPEPVTVSWNSGALTSGVHTFPAVLQSSGLYSLSSVVTVPSSSLGTQTYICNVNHKPSNTKVDKRVEPKSCDKTHTCPPCPAPELWNGPSVFLFPPKPKDTLMISRTPEVTCVVVDVSDEDPEVKFNWYVDGVEVHNAKTKPREELYNSTYRVVSVLTVLHQDWLNGKEYKCKVSNTALPKPIEKTISKAKGQRREPQVYTLPPSREEMTKNQVSLTCLVKGFYPSDIAVEWESNGQPENNYKTTPPVLDSDGSFFLYSKLTVDKSRWQQGNVFSCSVMHEALHNHYTQKSLSLSP light: QSALTQPPSASGSPGQTVTISCTGTRYDVGYYEYVSWYQQHPGKAPKLMIYETSKRLSGVPDRFSGSKSGNTASLTVSGLQAEDEADYYCSSYRYEHQVSFGGGTKLTVLGQPKAAPSVTLFPPSSEELQANKATLVCLISDFYPGAVTVAWKADSSPVKAGVETTTPSKQSNNKYAASSYLSLTPEQWKSHRSYSCQVTHEGSTVEKTVAPTECS | 0.0018 | 0.0542 | 0.0554 | 0.054 | 0.0012 | 0.0013 | 1110 | 0.02 | 0.96 | 1.2 | 4.93 | 0.06 | 0.02
4 | A375-SCF041aPh/B167-Lamlib (antibody, human IgG1, lambda) heavy: EVQLVESGGGLVKPGGSLRLSCAASGFTFSTFTMNWVRQAPGKGLEWVSSISSKSTYIEYADSFKVRFTISRDNAKNSLYLQMNSLRAEDTAVYYCARYGAKNFLNWVFDYWGQGTLVTVSSASTKGPSVFPLAPSSKSTSGGTAALGCLVKDYFPEPVTVSWNSGALTSGVHTFPAVLQSSGLYSLSSVVTVPSSSLGTQTYICNVNHKPSNTKVDKRVEPKSCDKTHTCPPCPAPELWNGPSVFLFPPKPKDTLMISRTPEVTCVVVDVSDEDPEVKFNWYVDGVEVHNAKTKPREEQYNSTYRVVSVLTVLHQDWLNGKEYKCKVSNKALPKPIEKTISKAKGQRREPQVYTLPPSREEMTKNQVSLTCLVKGFYPSDIAVEWESNGQPENNYKTTPPVLDSDGSFFLYSKLTVDKSRWQQGNVFSCSVMHEALHNHYTQKSLSLSP light: QSALTQPPSASGSPGQTVTISCTGTRYDVGYYEYVSWYQQHPGKAPKLMIYETSKRLSGVPDRFSGSKSGNTASLTVSGLQAEDEADYYCSSYRYEHQVSFGGGTKLTVLGQPKAAPSVTLFPPSSEELQANKATLVCLISDFYPGAVTVAWKADSSPVKAGVETTTPSKQSNNKYAASSYLSLTPEQWKSHRSYSCQVTHEGSTVEKTVAPTECS | 0.0013 | 0.0371 | 0.0371 | 0.035 | 0.0007 | 0.0005 | 1130 | 0.02 | 0.65 | 0.8 | 3.2 | 0.03 | 0.01
5 | A375-SCF040/B167-Lamlib (antibody, human IgG1, lambda, copies: 2 + 2) heavy: EVQLVESGGGLVKPGGSLRLSCAASGFTFSTFTMNWVRQAPGKGLEWVSSISSKSTYIEYADSFKVRFTISRDNAKNSLYLQMNSLRAEDTAVYYCARYGAKNFLNWVFDYWGQGTLVTVSSASTKGPSVFPLAPSSKSTSGGTAALGCLVKDYFPEPVTVSWNSGALTSGVHTFPAVLQSSGLYSLSSVVTVPSSSLGTQTYICNVNHKPSNTKVDKKVEPKSCDKTHTCPPCPAPELWNGPSVFLFPPKPKDTLMISRTPEVTCVVVDVSDEDPEVKFNWYVDGVEVHNAKTKPREELYNSTYRVVSVLTVLHQDWLNGKEYKCKVSNTALPKPIEKTISKAKGQPREPQVYTLPPSREEMTKNQVSLTCLVKGFYPSDIAVEWESNGQPENNYKTTPPVLDSDGSFFLYSKLTVKKSRWQQGNVFSCSVMHEALHNHYTQKSLSLSP light: QSALTQPPSASGSPGQTVTISCTGTRYDVGYYEYVSWYQQHPGKAPKLMIYETSKRLSGVPDRFSGSKSGNTASLTVSGLQAEDEADYYCSSYRYEHQVSFGGGTKLTVLGQPKAAPSVTLFPPSSEELQANKATLVCLISDFYPGAVTVAWKADSSPVKAGVETTTPSKQSNNKYAASSYLSLTPEQWKSHRSYSCQVTHEGSTVEKTVAPTECS | 0.0016 | 0.0454 | 0.0446 | 0.0465 | 0.001 | 0.0013 | 1460 | 0.02 | 0.8 | 0.96 | 4.24 | 0.05 | 0.02

From patent US20210324099A1 (Chugai, published 2021)
